Measurements taken from patent publication US20190276531A1.

Experiments:
[1] = molecular target: cynomolgus TIM-3 Fc fusion antigen (Sino Biologicals) (cynomolgus monkey (Macaca fascicularis)); assay: ELISA; TIM-3 Fc fusion coated at 1 µg/ml, antibody titrated 2-fold from 1000 nM, HRP secondary
[2] = molecular target: cynomolgus TIM-3 Fc fusion antigen (Sino Biologicals) (cynomolgus monkey (Macaca fascicularis)); assay: ELISA; EC50 on cynomolgus TIM-3 over EC50 on human TIM-3

Chain of cynomolgus TIM-3 Fc fusion antigen (Sino Biologicals) (cynomolgus monkey (Macaca fascicularis)) (chain, as listed by the source limits assumed): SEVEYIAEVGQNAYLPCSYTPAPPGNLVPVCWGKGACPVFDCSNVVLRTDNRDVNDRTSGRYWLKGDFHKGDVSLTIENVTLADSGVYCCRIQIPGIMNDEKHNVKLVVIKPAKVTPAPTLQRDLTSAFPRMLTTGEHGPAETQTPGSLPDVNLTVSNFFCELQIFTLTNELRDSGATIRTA

- EC50 [1]: 9.42 nM
- Ratio Cynomolgus/Human EC50 [2]: 47
B1: antibody 19416 (antibody, V domains shown)
VH: QVQLVESGPGLVKPSQTLSLTCTVSGGSINSGGYYWSWIRQHPGKGLEWIGYIYYSGSIYYNPSLRSRLTISVDTSKNQFSLKLSSVTAADTAVYYCATPYYYGSGSYGDYWGQGTLVTVSS
VL: DIQMTQSPATLSLSPGERATLSCRASQSVNNYLAWYQQKPGQAPRLLIYDASNRATGIPARFSGSGSGTDFTLTISSLEPEDFAVYYCQQRSNWPITFGQGTRLEIK
